Here are results for 5 molecules from PMC1762330, “‘Fractional Recovery’ Analysis of a Presynaptic Synaptotagmin 1-Anchored Endocytic Protein Complex” (PLoS ONE, 2006).

To fix the notation:
B1: short-variant intersectin (natural protein, UniProt Q9WVE9-1 1-1217, looked up)
chain: MAQFPTPFGGSLDIWAITVEERAKHDQQFQSLKPISGFITGDQARNFFFQSGLPQPVLAQIWALADMNKDGRMDQVEFSIAMKLIKLKLQGYQLPPALPPVMKQQPAAISSAPAFGIGGMAGMPPLTAVAPVPMGSIPVVGMSPPLVSSVPQAAVPPLANGAPPVIQPLPAFAHPAATLPKSSSFSRSGPGSQLNTKLQKAQSFDVASAPAAAEWAVPQSSRLKYRQLFNSHDKTMSGHLTGPQARTILMQSSLPQAQLASIWNLSDIDQDGKLTAEEFILAMHLIDVAMSGQPLPPVLPPEYIPPSFRRVRSGSGMSVISSSSADQRLPEEPSSEDEQQVEKKLPVTFEDKKRENFERGNLELEKRRQALLEQQRKEQERLAQLERAEQERKERERQEQERKRQLELEKQLEKQRELERQREEERRKEIERREAAKRELERQRQLEWERNRRQELLTQRNKDQEGIVVLKARRKTLEFELEALNDKKHQLEGKLQDIRCRLATQRQEIESTNKSRELRIAEITHLQQQLQESQQMLGRLIPEKQILSDQLKQVQQNSLHRDSLLTLKRALEAKELARQQLREQLDEVEKETRSKLQEIDVFNNQLKELREIHSKQQLQKQRSIEAERLKQKEQERKSLELEKQKEEGQRRVQERDKQWQEHVQQEEQQRPRKPHEEDKLKREDSVKKKEAEERAKPEVQDKQSRLFHPHQEPAKPAQAPWPTTEKGPLTISAQESAKVVYYRALYPFESRSHDEITIQPGDIVMVKGEWVDESQTGEPGWLGGELKGKTGWFPANYAEKIPENEIPTPAKPVTDLTSAPAPKLALRETPAPLPVTSSEPSTTPNNWADFSSTWPSSTNEKPETDNWDTWAAQPSLTVPSAGQLRQRSAFTPATATGSSPSPVLGQGEKVEGLQAQALYPWRAKKDNHLNFNKSDVITVLEQQDMWWFGEVQGQKGWFPKSYVKLISGPVRKSTSIDTGPTEAPSSLKRVASPAAKPAIPGEEFVAMYTYESSEHGDLTFQQGDVIVVTKKDGDWWTGTVGETSGVFPSNYVRLKDSEGSGTAGKTGSLGKKPEIAQVIASYTATGPEQLTLAPGQLILIRKKNPGGWWEGELQARGKKRQIGWFPANYVKLLSPGTSKITPTELPKTAVQPAVCQVIGMYDYTAQNDDELAFSKGQIINVLSKEDPDWWKGEVSGQVGLFPSNYVKLTTDMDPSQQ
notes: intersectin (intersectin 1 by the antibody's name Intersectin/ESE-1), short variant, told from the long variant by the size of its band; endogenous in rat brain synaptosomes; they are told apart only as bands on the blot; not checked; also called S-intersectin; S-Int; source: endogenous, rat brain synaptosome lysate
B2: stonin2 (natural protein, UniProt D4AB66 1-895, looked up)
chain: MTTLDHVIATHQSEWVSFSEEPLFPTPLEGGTEEHFPGLSSSSDRSESSSGENHAVDEGSQDLSHSEQDDSSEKMGLISEAASPPGSPVQPTPDLASAISNWVQFEDDTPWSNTSAPHKETALTLTVPCWTCPSLDSLRRCPLASESSWTTHSEDTSSPSVAPSYTDLQLINAEEQASGRASGTDSTDNSSSLQEDEEVEMETISWWAGSPAMNGHPAVPQVTTARFPSWVTFEDNEVGCPSPTVPSPKKPNAPSAATAGPDVPFNSTGSFKRDRPKSTLMNLSKVQKLDISSLNRPPSVTEAPPWRATNPFLNESLQDIQPSPINPFSAFFEEQERRSQNSSISGTSGKSQRDSLIVIYQDAISFDDSGKSQSHPDAIEKLKQLQIDDPDPVGNAALPDDDPTASVEPDAPSPTSALSQPRDGWPMMLRIPEKKNIMSSRHWGPIYIKLTDSGYLQLYYEQGLEKPFREFKLEICHEVSEPRLQNYDENGRIHSLRIDRVTYKEKKKYQPKPAVAHAAEREQVIKLGTTNYDDFLSFIHAVQDRLMDLPVQSMDLSTVGLNYLEEEITVDIRDEFSGTVSKGDNQILQHHVLTRIHILSFLSGLAECRLGLNDILIKGNEIVSRQDIMPTTTTKWIKLHECRFHGCVDEDVFNSSRVILFNPLDACRFELMRFRTVFAEKTLPFTLRTAASINGAEVEVQSWLRMSPGFSSNRDPLTQVPCENVMVRYPVPSEWVKNFRRESVLGEKSLKAKVNRGASFGSAGASGSEPVMRVTLGTAKYEHAFNSIVWRINRLPDKNSASGHPHCFFCHLELGSDREVPSRFANHVNVEFSMPTTSASKAAVRSISVEDKPDVRKWVNYSAHYSYKVEIEQKKSLKPDFEGEDLENPKECGVQ
notes: stonin 2, endogenous in rat brain synaptosomes; source: endogenous, rat brain synaptosome lysate
B3: synaptotagmin 1 (natural protein, UniProt P21707 1-421, looked up)
chain: MVSASHPEALAAPVTTVATLVPHNATEPASPGEGKEDAFSKLKQKFMNELHKIPLPPWALIAIAIVAVLLVVTCCFCVCKKCLFKKKNKKKGKEKGGKNAINMKDVKDLGKTMKDQALKDDDAETGLTDGEEKEEPKEEEKLGKLQYSLDYDFQNNQLLVGIIQAAELPALDMGGTSDPYVKVFLLPDKKKKFETKVHRKTLNPVFNEQFTFKVPYSELGGKTLVMAVYDFDRFSKHDIIGEFKVPMNTVDFGHVTEEWRDLQSAEKEEQEKLGDICFSLRYVPTAGKLTVVILEAKNLKKMDVGGLSDPYVKIHLMQNGKRLKKKKTTIKKNTLNPYYNESFSFEVPFEQIQKVQVVVTVLDYDKIGKNDAIGKVFVGYNSTGAELRHWSDMLANPRRPIAQWHTLQVEEEVDAMLAVKK
notes: synaptotagmin 1, endogenous in synaptosomes from brains of 2-10 day old Sprague Dawley rats; also called STG; STG 1; source: endogenous, rat brain synaptosome lysate

Test in all cases: co-IP; fractional recovery: immunoprecipitate from rat brain synaptosome lysate on beads split in three aliquots, 15 min on ice in RIPA buffer with 150, 650 or 1150 mM total salt; what stayed on the beads found by Western blot and densitometry; FR = recovery at 1150 mM / recovery at 150 mM, normalised to the FR of the IP-protein
In general terms: Immunoblotting shows a protein as a band on a membrane.

Test [1] has as its target stonin2 (rat (endogenous in rat brain synaptosomes)) (UniProt D4AB66).
The target in test [2] is B2. To be noted: partners not purified.
Test [3] concerns the target T1, heavy chain clathrin (rat (endogenous in rat brain …, UniProt P11442 1-1675)).
T1 construct: clathrin heavy chain, endogenous in rat brain synaptosomes; also called H-clathrin; H-Cl; source: endogenous, rat brain synaptosome lysate
As to conditions: partners not purified.

Test [4] has as its target T2, AP180 (rat (endogenous in rat brain …, UniProt Q05140 1-915)).
T2 construct: AP180 (clathrin coat assembly protein), endogenous in rat brain synaptosomes; source: endogenous, rat brain synaptosome lysate
T2 sequence (looked up): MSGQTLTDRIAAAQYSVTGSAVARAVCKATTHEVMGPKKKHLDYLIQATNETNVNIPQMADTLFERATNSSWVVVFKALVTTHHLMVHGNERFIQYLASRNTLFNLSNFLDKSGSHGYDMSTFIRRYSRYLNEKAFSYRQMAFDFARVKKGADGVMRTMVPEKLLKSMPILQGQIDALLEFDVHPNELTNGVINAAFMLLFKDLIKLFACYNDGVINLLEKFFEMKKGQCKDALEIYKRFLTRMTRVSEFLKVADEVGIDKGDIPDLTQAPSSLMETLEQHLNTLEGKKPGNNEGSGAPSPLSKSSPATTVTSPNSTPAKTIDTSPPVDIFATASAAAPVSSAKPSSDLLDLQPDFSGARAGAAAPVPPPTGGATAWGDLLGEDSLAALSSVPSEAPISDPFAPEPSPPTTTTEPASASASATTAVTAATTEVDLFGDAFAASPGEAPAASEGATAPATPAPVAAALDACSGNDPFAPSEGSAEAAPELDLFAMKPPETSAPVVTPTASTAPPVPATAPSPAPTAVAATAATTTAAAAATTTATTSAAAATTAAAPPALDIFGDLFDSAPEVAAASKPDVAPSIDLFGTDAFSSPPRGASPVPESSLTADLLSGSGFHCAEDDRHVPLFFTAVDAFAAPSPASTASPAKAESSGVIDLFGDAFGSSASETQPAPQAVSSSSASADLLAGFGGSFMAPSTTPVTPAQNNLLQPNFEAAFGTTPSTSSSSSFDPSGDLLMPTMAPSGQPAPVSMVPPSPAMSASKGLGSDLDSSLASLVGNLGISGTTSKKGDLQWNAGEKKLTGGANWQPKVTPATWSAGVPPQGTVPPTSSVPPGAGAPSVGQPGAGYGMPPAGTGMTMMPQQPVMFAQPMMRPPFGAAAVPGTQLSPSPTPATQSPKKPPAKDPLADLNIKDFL
To be noted: partners not purified.

T1 sequence (P11442 whole entry): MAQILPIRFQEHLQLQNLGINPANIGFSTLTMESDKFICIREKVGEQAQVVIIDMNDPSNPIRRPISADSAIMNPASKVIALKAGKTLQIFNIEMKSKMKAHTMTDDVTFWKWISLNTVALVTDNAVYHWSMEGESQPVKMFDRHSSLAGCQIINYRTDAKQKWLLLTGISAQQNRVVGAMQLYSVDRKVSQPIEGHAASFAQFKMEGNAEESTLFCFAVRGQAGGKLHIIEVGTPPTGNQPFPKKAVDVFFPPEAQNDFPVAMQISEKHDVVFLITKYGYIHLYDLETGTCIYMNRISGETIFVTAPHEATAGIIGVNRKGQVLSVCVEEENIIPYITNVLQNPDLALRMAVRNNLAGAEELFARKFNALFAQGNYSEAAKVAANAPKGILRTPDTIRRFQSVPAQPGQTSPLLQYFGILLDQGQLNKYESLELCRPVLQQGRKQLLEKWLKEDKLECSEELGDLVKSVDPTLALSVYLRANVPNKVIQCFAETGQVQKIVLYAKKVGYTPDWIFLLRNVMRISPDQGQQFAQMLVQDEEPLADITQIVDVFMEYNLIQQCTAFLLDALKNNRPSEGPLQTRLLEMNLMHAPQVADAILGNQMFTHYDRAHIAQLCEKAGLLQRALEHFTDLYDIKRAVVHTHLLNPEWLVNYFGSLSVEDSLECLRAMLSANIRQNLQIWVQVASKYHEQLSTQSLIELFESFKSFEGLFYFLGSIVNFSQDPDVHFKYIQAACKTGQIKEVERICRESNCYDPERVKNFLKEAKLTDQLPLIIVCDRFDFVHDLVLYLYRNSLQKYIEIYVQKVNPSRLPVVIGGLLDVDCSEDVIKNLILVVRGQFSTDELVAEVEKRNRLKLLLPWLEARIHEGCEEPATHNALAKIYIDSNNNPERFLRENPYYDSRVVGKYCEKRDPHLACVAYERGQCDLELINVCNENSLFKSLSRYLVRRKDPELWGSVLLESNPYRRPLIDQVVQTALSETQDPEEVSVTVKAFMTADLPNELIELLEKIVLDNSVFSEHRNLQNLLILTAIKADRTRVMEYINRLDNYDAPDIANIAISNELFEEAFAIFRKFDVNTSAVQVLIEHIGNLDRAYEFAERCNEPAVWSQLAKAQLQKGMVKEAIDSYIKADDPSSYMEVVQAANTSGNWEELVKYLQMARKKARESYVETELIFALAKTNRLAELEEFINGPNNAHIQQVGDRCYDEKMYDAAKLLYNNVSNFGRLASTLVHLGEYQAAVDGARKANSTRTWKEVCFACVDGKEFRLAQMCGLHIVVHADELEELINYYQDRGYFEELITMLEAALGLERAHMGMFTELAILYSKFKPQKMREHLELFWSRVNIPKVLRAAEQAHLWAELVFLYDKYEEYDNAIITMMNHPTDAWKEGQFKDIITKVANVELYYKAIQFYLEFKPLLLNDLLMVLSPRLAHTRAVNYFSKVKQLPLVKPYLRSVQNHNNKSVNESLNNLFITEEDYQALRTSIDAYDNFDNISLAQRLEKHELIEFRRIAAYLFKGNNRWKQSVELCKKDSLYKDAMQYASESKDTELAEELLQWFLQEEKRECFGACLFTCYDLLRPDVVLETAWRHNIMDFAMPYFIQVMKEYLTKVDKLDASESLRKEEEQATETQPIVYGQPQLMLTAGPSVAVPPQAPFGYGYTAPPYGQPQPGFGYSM

Take “long-variant intersectin (natural protein)”: the fractional recovery (FR; recovery at 1150 mM salt / recovery at 150 mM salt) in test [1] worked out at 1.
For the molecule “light chain clathrin (from UniProt P08081 1-248) (natural protein)”, the fractional recovery (FR; recovery at 1150 mM salt / recovery at 150 mM salt) in test [1] was 0.84.
With B1, in test [2], the “fractional recovery (FR; recovery at 1150 mM salt / recovery at 150 mM salt)” value amounted to 0.83.
In the case of B2, the figures for the “fractional recovery (FR; recovery at 1150 mM salt / recovery at 150 mM salt)” value in test [3] and in test [4] were 0.78 and 1 ± 0.17, respectively.
On to B3, for which the “fractional recovery (FR; recovery at 1150 mM salt / recovery at 150 mM salt)” value in test [2] was 0.98.
